The values that follow come from the supplement of paper PMC5998384.

For series [1], the system named is HeLa Kyoto. As to the kind of experiment: solubility change mitosis vs G1/S (difference of NP-40 vs SDS log2 ratios) (log2 ratio difference); higher = more soluble in mitosis.
Series [2] has as its system HeLa Kyoto. As to the kind of experiment: melting temperature (median over replicates), in situ; higher = more thermally stable.
The test system of series [3] is HeLa Kyoto. Nature of the series: solubility in G1/S (NP-40 vs SDS abundance) (log2 ratio); higher = more soluble. To be noted: cell cycle stage: G1/S.
The test system of series [4] is HeLa Kyoto. Nature of the series: thermal stability score vs G1/S (z-score of summed log2 fold changes over temperatures); higher = more thermally stable than in G1/S.
Setting [5] is: cell cycle stage: early G1 (4.5 h after nocodazole release).
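Throughout, for melting temperature (median over replicates), in situ: HeLa Kyoto cells synchronized by double thymidine or nocodazole block, proteins quantified by TMT10plex mass spectrometry, three independent biological replicates.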
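Throughout, for solubility change mitosis vs G1/S (difference of NP-40 vs SDS log2 ratios): synchronized HeLa Kyoto cells (double thymidine block for G1/S, nocodazole release for mitosis), protein amounts in NP-40 versus SDS lysates quantified by mass spectrometry, three biological replicates.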
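Throughout, for solubility in G1/S (NP-40 vs SDS abundance): HeLa Kyoto cells arrested at G1/S by double thymidine block, proteins quantified by TMT10plex mass spectrometry in mild NP-40 versus SDS extracts, three biological replicates.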
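Throughout, for thermal stability score vs G1/S (z-score of summed log2 fold changes over temperatures): synchronized HeLa Kyoto cells, proteins quantified by TMT10plex mass spectrometry, three biological replicates, mitosis taken 0.5 h after nocodazole release, G1/S directly after double thymidine block.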

Turning to “MARHVFLTGPPGVGKTTLIHKASEVLKSSGVPVDGFYTEEVRQGGRRIGFDVVTLSGTRGPLSRVGLEPPPGKRECRVGQYVVDLTSFEQLALPVLRNADCSSGPGQRVCVIDEIGKMELFSQLFIQAVRQTLSTPGTIILGTIPVPKGKPLALVEEIRNRKDVKVFNVTKENRNHLLPDIVTCVQSSRK [NTPCR]”, the “solubility change mitosis (log2)” value in series [1] stood at 0.0287. Besides, the figures for the melting temperature in series [2] (cell cycle stage: G1/S) and in series [2] (cell cycle stage: mitosis) were 52.6 °C and 53.4 °C, respectively. The “solubility in G1/S (log2)” value in series [3] worked out at 0.569. Besides, the thermal stability score was 1.23 in series [4] (setting [5]) and 0.656 in series [4] (cell cycle stage: mitosis).

“MARKLSVILILTFALSVTNPLHELKAAAFPQTTEKISPNWESGINVDLAISTRQYHLQQLFYRYGENNSLSVEGFRKLLQNIGIDKIKRIHIHHDHDHHSDHEHHSDHERHSDHEHHSEHEHHSDHDHHSHHNHAASGKNKRKALCPDHDSDSSGKDPRNSQGKGAHRPEHASGRRNVKDSVSASEVTSTVYNTVSEGTHFLETIETPRPGKLFPKDVSSSTPPSVTSKSRVSRLAGRKTNESVSEPRKGFMYSRNTNENPQECFNASKLLTSHGMGIQVPLNATEFNYLCPAIINQIDARSCLIHTSEKKAEIPPKTYSLQIAWVGGFIAISIISFLSLLGVILVPLMNRVFFKFLLSFLVALAVGTLSGDAFLHLLPHSHASHHHSHSHEEPAMEMKRGPLFSHLSSQNIEESAYFDSTWKGLTALGGLYFMFLVEHVLTLIKQFKDKKKKNQKKPENDDDVEIKKQLSKYESQLSTNEEKVDTDDRTEGYLRADSQEPSHFDSQQPAVLEEEEVMIAHAHPQEVYNEYVPRGCKNKCHSHFHDTLGQSDDLIHHHHDYHHILHHHHHQNHHPHSHSQRYSREELKDAGVATLAWMVIMGDGLHNFSDGLAIGAAFTEGLSSGLSTSVAVFCHELPHELGDFAVLLKAGMTVKQAVLYNALSAMLAYLGMATGIFIGHYAENVSMWIFALTAGLFMYVALVDMVPEMLHNDASDHGCSRWGYFFLQNAGMLLGFGIMLLISIFEHKIVFRINF [SLC39A6]”: the “solubility change mitosis (log2)” value in series [1] was -0.0474. The same sequence showed a melting temperature in series [2] (cell cycle stage: mitosis) of 57.4 °C. Further, in series [3], the “solubility in G1/S (log2)” value is -0.161. Moreover, the results for the thermal stability score in series [4] (setting [5]) and in series [4] (cell cycle stage: mitosis) were 0.915 and -0.208, respectively.

As to “MARMNRPAPVEVTYKNMRFLITHNPTNATLNKFIEELKKYGVTTIVRVCEATYDTTLVEKEGIHVLDWPFDDGAPPSNQIVDDWLSLVKIKFREEPGCCIAVHCVAGLGRAPVLVALALIEGGMKYEDAVQFIRQKRRGAFNSKQLLYLEKYRPKMRLRFKDSNGHRNNCCIQ [PTP4A1]”, the “solubility change mitosis (log2)” value in series [1] was -0.0406. Moreover, the results for the melting temperature in series [2] (cell cycle stage: G1/S) and in series [2] (cell cycle stage: mitosis) were 52.9 °C and 53.8 °C, respectively. For the same sequence, the “solubility in G1/S (log2)” value in series [3] was -0.131. Moreover, the thermal stability score in series [4] (setting [5]) was 0.98; in series [4] (cell cycle stage: mitosis) it was -0.349.

In the case of “MASAELQGKYQKLAQEYSKLRAQNQVLKKGVVDEQANSAALKEQLKMKDQSLRKLQQEMDSLTFRNLQLAKRVELLQDELALSEPRGKKNKKSGESSSQLSQEQKSVFDEDLQKKIEENERLHIQFFEADEQHKHVEAELRSRLATLETEAAQHQAVVDGLTRKYMETIEKLQNDKAKLEVKSQTLEKEAKECRLRTEECQLQLKTLHEDLSGRLEESLSIINEKVPFNDTKYSQYNALNVPLHNRRHQLKMRDIAGQALAFVQDLVTALLNFHTYTEQRIQIFPVDSAIDTISPLNQKFSQYLHENASYVRPLEEGMLHLFESITEDTVTVLETTVKLKTFSEHLTSYICFLRKILPYQLKSLEEECESSLCTSALRARNLELSQDMKKMTAVFEKLQTYIALLALPSTEPDGLLRTNYSSVLTNVGAALHGFHDVMKDISKHYSQKAAIEHELPTATQKLITTNDCILSSVVALTNGAGKIASFFSNNLDYFIASLSYGPKAASGFISPLSAECMLQYKKKAAAYMKSLRKPLLESVPYEEALANRRILLSSTESREGLAQQVQQSLEKISKLEQEKEHWMLEAQLAKIKLEKENQRIADKLKNTGSAQLVGLAQENAAVSNTAGQDEATAKAVLEPIQSTSLIGTLTRTSDSEVPDVESREDLIKNHYMARIVELTSQLQLADSKSVHFYAECRALSKRLALAEKSKEALTEEMKLASQNISRLQDELTTTKRSYEDQLSMMSDHLCSMNETLSKQREEIDTLKMSSKGNSKKNKSR [PPP1R21]”, the “solubility change mitosis (log2)” value in series [1] is -0.00813. The melting temperature worked out at 51.3 °C in series [2] (cell cycle stage: G1/S) and 51 °C in series [2] (cell cycle stage: mitosis). In addition, the “solubility in G1/S (log2)” value in series [3] is 0.371. The thermal stability score in series [4] (setting [5]) is 1.34; in series [4] (cell cycle stage: mitosis), 1.02.

On to “MASCAEPSEPSAPLPAGVPPLEDFEVLDGVEDAEGEEEEEEEEEEEDDLSELPPLEDMGQPPAEEAEQPGALAREFLAAMEPEPAPAPAPEEWLDILGNGLLRKKTLVPGPPGSSRPVKGQVVTVHLQTSLENGTRVQEEPELVFTLGDCDVIQALDLSVPLMDVGETAMVTADSKYCYGPQGRSPYIPPHAALCLEVTLKTAVDGPDLEMLTGQERVALANRKRECGNAHYQRADFVLAANSYDLAIKAITSSAKVDMTFEEEAQLLQLKVKCLNNLAASQLKLDHYRAALRSCSLVLEHQPDNIKALFRKGKVLAQQGEYSEAIPILRAALKLEPSNKTIHAELSKLVKKHAAQRSTETALYRKMLGNPSRLPAKCPGKGAWSIPWKWLFGATAVALGGVALSVVIAARN [FKBP8]”, for which the “solubility change mitosis (log2)” value in series [1] was -0.0477. The results for the melting temperature in series [2] (cell cycle stage: G1/S) and in series [2] (cell cycle stage: mitosis) were 48.7 °C and 49.5 °C, respectively. Also, the “solubility in G1/S (log2)” value in series [3] was 0.229. Further, the thermal stability score in series [4] (setting [5]) was found to be 1.22; in series [4] (cell cycle stage: mitosis), 3.

For “MASCASIDIEDATQHLRDILKLDRPAGGPSAESPRPSSAYNGDLNGLLVPDPLCSGDSTSANKTGLRTMPPINLQEKQVICLSGDDSSTCIGILAKEVEIVASSDSSISSKARGSNKVKIQPVAKYDWEQKYYYGNLIAVSNSFLAYAIRAANNGSAMVRVISVSTSERTLLKGFTGSVADLAFAHLNSPQLACLDEAGNLFVWRLALVNGKIQEEILVHIRQPEGTPLNHFRRIIWCPFIPEESEDCCEESSPTVALLHEDRAEVWDLDMLRSSHSTWPVDVSQIKQGFIVVKGHSTCLSEGALSPDGTVLATASHDGYVKFWQIYIEGQDEPRCLHEWKPHDGRPLSCLLFCDNHKKQDPDVPFWRFLITGADQNRELKMWCTVSWTCLQTIRFSPDIFSSVSVPPSLKVCLDLSAEYLILSDVQRKVLYVMELLQNQEEGHACFSSISEFLLTHPVLSFGIQVVSRCRLRHTEVLPAEEENDSLGADGTHGAGAMESAAGVLIKLFCVHTKALQDVQIRFQPQLNPDVVAPLPTHTAHEDFTFGESRPELGSEGLGSAAHGSQPDLRRIVELPAPADFLSLSSETKPKLMTPDAFMTPSASLQQITASPSSSSSGSSSSSSSSSSSLTAVSAMSSTSAVDPSLTRPPEELTLSPKLQLDGSLTMSSSGSLQASPRGLLPGLLPAPADKLTPKGPGQVPTATSALSLELQEVEPLGLPQASPSRTRSPDVISSASTALSQDIPEIASEALSRGFGSSAPEGLEPDSMASAASALHLLSPRPRPGPELGPQLGLDGGPGDGDRHNTPSLLEAALTQEASTPDSQVWPTAPDITRETCSTLAESPRNGLQEKHKSLAFHRPPYHLLQQRDSQDASAEQSDHDDEVASLASASGGFGTKVPAPRLPAKDWKTKGSPRTSPKLKRKSKKDDGDAAMGSRLTEHQVAEPPEDWPALIWQQQRELAELRHSQEELLQRLCTQLEGLQSTVTGHVERALETRHEQEQRRLERALAEGQQRGGQLQEQLTQQLSQALSSAVAGRLERSIRDEIKKTVPPCVSRSLEPMAGQLSNSVATKLTAVEGSMKENISKLLKSKNLTDAIARAAADTLQGPMQAAYREAFQSVVLPAFEKSCQAMFQQINDSFRLGTQEYLQQLESHMKSRKAREQEAREPVLAQLRGLVSTLQSATEQMAATVAGSVRAEVQHQLHVAVGSLQESILAQVQRIVKGEVSVALKEQQAAVTSSIMQAMRSAAGTPVPSAHLDCQAQQAHILQLLQQGHLNQAFQQALTAADLNLVLYVCETVDPAQVFGQPPCPLSQPVLLSLIQQLASDLGTRTDLKLSYLEEAVMHLDHSDPITRDHMGSVMAQVRQKLFQFLQAEPHNSLGKAARRLSLMLHGLVTPSLP [EDC4]”, the “solubility change mitosis (log2)” value in series [1] is -0.158. Further, the melting temperature is 49.6 °C in series [2] (cell cycle stage: G1/S) and 50.1 °C in series [2] (cell cycle stage: mitosis). In addition, the “solubility in G1/S (log2)” value in series [3] is 0.013. Moreover, the thermal stability score in series [4] (setting [5]) came out at 0.116; in series [4] (cell cycle stage: mitosis) it was 2.4.

As to “MASDEGKLFVGGLSFDTNEQSLEQVFSKYGQISEVVVVKDRETQRSRGFGFVTFENIDDAKDAMMAMNGKSVDGRQIRVDQAGKSSDNRSRGYRGGSAGGRGFFRGGRGRGRGFSRGGGDRGYGGNRFESRSGGYGGSRDYYSSRSQSGGYSDRSSGGSYRDSYDSYATHNE [CIRBP]”, the “solubility change mitosis (log2)” value in series [1] turned out to be 0.112. Also, the melting temperature in series [2] (cell cycle stage: G1/S) was 52.8 °C; in series [2] (cell cycle stage: mitosis), 53 °C. Moreover, in series [3], the “solubility in G1/S (log2)” value was -0.000215. Besides, the values for the thermal stability score in series [4] (setting [5]) and in series [4] (cell cycle stage: mitosis) were -0.492 and -2.78, respectively.
